{
  "source": "patent US20220098306A1",
  "about": "(Xencor, published 2022)",
  "binders": {"B1": {"name": "XENP35151 (bispecific antibody)", "heavy": "EVQLVESGGGLVKPGGSLRLSCAASGFSFSVGYYMCWVRQAPGKGLEWVSCIYVGSGSSGSTYYASVKGRFTISSDTAKTSVYLQMNSLRAEDTAVYFCARTAGSDWRLDLWGQGTLVTVSSASTKGPSVFPLAPSSKSTSGGTAALGCLVKDYFPEPVTVSWNSGALTSGVHTFPAVLQSSGLYSLSSVVTVPSSSLGTQTYICNVNHKPSDTKVDKKVEPKSCDKTHTCPPCPAPPVAGPSVFLFPPKPKDTLMISRTPEVTCVVVDVKHEDPEVKFNWYVDGVEVHNAKTKPREEEYNSTYRVVSVLTVLHQDWLNGKEYKCKVSNKALPAPIEKTISKAKGQPREPQVYTLPPSREEMTKNQVSLTCDVSGFYPSDIAVEWESDGQPENNYKTTPPVLDSDGSFFLYSKLTVDKSRWEQGDVFSCSVLHEALHSHYTQKSLSLSPGK", "scFv-Fc": "not shown", "light": "DIVMTQSPSSLSASVGDRVTITCRASQSIANELSWYQQKPGKPPKLLIYRASTLTSGVPSRFKGSGSGTDFTLTISSLQPEDFATYYCQSTYNGRAIGFGGGTKVEIKRTVAAPSVFIFPPSDEQLKSGTASVVCLLNNFYPREAKVQWKVDNALQSGNSQESVTEQDSKDSTYSLSSTLTLSKADYEKHKVYACEVTHQGLSSPVTKSFNRGEC", "notes": "1+1 Fab-scFv-Fc; copies: 1 + 1 + 1"}, "B2": {"name": "XENP34732 (bispecific antibody)", "heavy": "EVQLLESGGGLVQPGGSLRLSCAASGFTFSNYYMAWVRQAPGKGLEWVSSISTGGGSTYYRDSVKGRFTISRDNSKSTLYLQMNSLRAEDTAVYYCTTDLSAIAATPFAYWGQGTLVTVSSASTKGPSVFPLAPSSKSTSGGTAALGCLVKDYFPEPVTVSWNSGALTSGVHTFPAVLQSSGLYSLSSVVTVPSSSLGTQTYICNVNHKPSDTKVDKKVEPKSCDKTHTCPPCPAPPVAGPSVFLFPPKPKDTLMISRTPEVTCVVVDVKHEDPEVKFNWYVDGVEVHNAKTKPREEEYNSTYRVVSVLTVLHQDWLNGKEYKCKVSNKALPAPIEKTISKAKGQPREPQVYTLPPSREEMTKNQVSLTCDVSGFYPSDIAVEWESDGQPENNYKTTPPVLDSDGSFFLYSKLTVDKSRWEQGDVFSCSVLHEALHSHYTQKSLSLSPGK", "scFv-Fc": "not shown", "light": "DIQMTQSPSSLSASVGDRVTITCRASQNIYTSLAWYQQKPGKAPKLLIYNAHSLQTGIPSRFSGSGSGADFTLTISSLQPEDFATYFCQQYYSGLTFGSGTKLEIKRTVAAPSVFIFPPSDEQLKSGTASVVCLLNNFYPREAKVQWKVDNALQSGNSQESVTEQDSKDSTYSLSSTLTLSKADYEKHKVYACEVTHQGLSSPVTKSFNRGEC", "notes": "as for B1"}, "B3": {"name": "XENP35153 (bispecific antibody)", "heavy": "EVQLLESGGGLVQPGGSLRLSCAVSGFSLSSYGVIWVRQAPGKGLEYVSWVSSGGSTNYASSVKGRFTISRDTSKNTVYLQMNSLRAEDTAVYFCARGATNSGTDIWGPGTLVTVSSASTKGPSVFPLAPSSKSTSGGTAALGCLVKDYFPEPVTVSWNSGALTSGVHTFPAVLQSSGLYSLSSVVTVPSSSLGTQTYICNVNHKPSDTKVDKKVEPKSCDKTHTCPPCPAPPVAGPSVFLFPPKPKDTLMISRTPEVTCVVVDVKHEDPEVKFNWYVDGVEVHNAKTKPREEEYNSTYRVVSVLTVLHQDWLNGKEYKCKVSNKALPAPIEKTISKAKGQPREPQVYTLPPSREEMTKNQVSLTCDVSGFYPSDIAVEWESDGQPENNYKTTPPVLDSDGSFFLYSKLTVDKSRWEQGDVFSCSVLHEALHSHYTQKSLSLSPGK", "scFv-Fc": "not shown", "light": "DIVMTQSPSSLSASVGDRVTITCRASQSINSWLSWYQQKPGKPPKLLIYGASNLASGVPSRFKGSGSGTDFTLTISSLQPEDFATYYCQNNYGIIAAGATFGGGTKVEIKRTVAAPSVFIFPPSDEQLKSGTASVVCLLNNFYPREAKVQWKVDNALQSGNSQESVTEQDSKDSTYSLSSTLTLSKADYEKHKVYACEVTHQGLSSPVTKSFNRGEC", "notes": "as for B1"}, "B4": {"name": "XENP34339 (bispecific antibody)", "heavy 1": "EVQLLESGGGLVQPGGSLRLSCAASGFTFSSYYMSWVRQAPGKGLEWVSTISESGDSTYYADSVKGRFTISRDNSKNTLYLQMNSLRAEDTAVYYCAKSGPGLRQVGFDYWGQGTLVTVSSASTKGPSVFPLAPSSKSTSGGTAALGCLVKDYFPEPVTVSWNSGALTSGVHTFPAVLQSSGLYSLSSVVTVPSSSLGTQTYICNVNHKPSDTKVDKKVEPKSCDKTHTCPPCPAPPVAGPSVFLFPPKPKDTLMISRTPEVTCVVVDVKHEDPEVKFNWYVDGVEVHNAKTKPREEEYNSTYRVVSVLTVLHQDWLNGKEYKCKVSNKALPAPIEKTISKAKGQPREPQVYTLPPSREEMTKNQVSLTCDVSGFYPSDIAVEWESDGQPENNYKTTPPVLDSDGSFFLYSKLTVDKSRWEQGDVFSCSVMHEALHNHYTQKSLSLSPGK", "heavy 2": "QVQLVQSGAEVKKPGASVKVSCKASGYIFTNNYMHWVRQAPGQGLEWMGIISPSVGRTAYAQKFQGRVTMTRDTSTSTVYMELSSLRSEDTAVYYCARGGGSSPRLDYWGQGTLVTVSSASTKGPSVFPLAPSSKSTSGGTAALGCLVKDYFPEPVTVSWNSGALTSGVHTFPAVLQSSGLYSLSSVVTVPSSSLGTQTYICNVNHKPSNTKVDKKVEPKSCGKPGSGKPGSQVQLVQSGAEVKKPGASVKVSCKASGYIFTNNYMHWVRQAPGQGLEWMGIISPSVGRTAYAQKFQGRVTMTRDTSTSTVYMELSSLRSEDTAVYYCARGGGSSPRLDYWGQGTLVTVSSASTKGPSVFPLAPSSKSTSGGTAALGCLVKDYFPEPVTVSWNSGALTSGVHTFPAVLQSSGLYSLSSVVTVPSSSLGTQTYICNVNHKPSNTKVDKKVEPKSCDKTHTCPPCPAPPVAGPSVFLFPPKPKDTLMISRTPEVTCVVVDVKHEDPEVKFNWYVDGVEVHNAKTKPREEQYNSTYRVVSVLTVLHQDWLNGKEYKCKVSNKALPAPIEKTISKAKGQPREPQVYTLPPSREQMTKNQVKLTCLVKGFYPSDIAVEWESNGQPENNYKTTPPVLDSDGSFFLYSKLTVDKSRWQQGNVFSCSVMHEALHNHYTQKSLSLSPGK", "light": "not shown", "notes": "2+1 CLC format; also called B7H3 x CD28 bsAb in 2+1 CLC format; copies: 1 + 1 + 3"}, "B5": {"name": "XENP35611 (bispecific antibody)", "heavy 1": "B4 heavy 1 with Y33A, E53G", "heavy 2": "B4 heavy 2", "light": "not shown", "notes": "2+1 CLC format; copies: 1 + 1 + 3"}, "B6": {"name": "XENP34336 (bispecific antibody)", "heavy 1": "B4 heavy 1", "heavy 2": "B4 heavy 2 with N32H, V55A, R57S, A59D, N264H, V287A, R289S, A291D", "light": "not shown", "notes": "as for B5"}, "B7": {"name": "XENP35612 (bispecific antibody)", "heavy 1": "B4 heavy 1 with E53G", "heavy 2": "B4 heavy 2", "light": "not shown", "notes": "as for B5"}},
  "note": "Numbering of substitutions follows the chain as printed.",
  "data": [
    {"target": "T1, B7H3 (antigen of the affinity statements) (human, UniProt Q5ZPR3 29-466, limits assumed)", "T1 construct": "also called CD276", "T1 sequence (looked up)": "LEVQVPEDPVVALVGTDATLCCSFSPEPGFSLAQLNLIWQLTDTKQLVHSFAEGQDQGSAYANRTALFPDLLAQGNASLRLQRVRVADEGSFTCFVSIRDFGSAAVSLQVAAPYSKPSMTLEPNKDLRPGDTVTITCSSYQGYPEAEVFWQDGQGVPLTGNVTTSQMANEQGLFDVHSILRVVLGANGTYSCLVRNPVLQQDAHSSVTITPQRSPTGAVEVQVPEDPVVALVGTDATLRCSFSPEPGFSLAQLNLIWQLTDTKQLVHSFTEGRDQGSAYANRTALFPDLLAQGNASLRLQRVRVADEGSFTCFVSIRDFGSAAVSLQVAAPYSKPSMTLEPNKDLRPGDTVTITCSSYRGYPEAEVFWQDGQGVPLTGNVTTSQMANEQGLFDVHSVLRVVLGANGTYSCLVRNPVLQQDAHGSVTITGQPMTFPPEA", "experiment": "monovalent affinity in 1+1 bsAb format (Example 2B)", "values": [
      {"binder": "B1", "binding result": "binds"},
      {"binder": "B2", "binding result": "binds"},
      {"binder": "B3", "binding result": "binds"}
    ]},
    {"target": "T2, CD28 (antigen of the affinity determinations) (human, UniProt P10747 19-152, limits assumed)", "T2 construct": "also called human CD28", "experiment": "binding affinity of the CD28 binding domain; method not given", "units": {"Kd": "nM"}, "values": [
      {"binder": "B4", "Kd": 77},
      {"binder": "B5", "Kd": 610},
      {"binder": "B6", "Kd": 440},
      {"binder": "B7", "Kd": 270}
    ]}
  ]
}
